The source of these data is patent US20170015742A1 (published 2017).

In assay [1] the target is recombinant human VEGF165 (human, UniProt P15692 207-395). Description: cell-based or functional assay.
In assay [2] the target is recombinant human PDGF-BB (human, UniProt P01127 82-190). Description: cell-based or functional assay.
Sequence of recombinant human PDGF-BB (P01127 82-190 limits assumed): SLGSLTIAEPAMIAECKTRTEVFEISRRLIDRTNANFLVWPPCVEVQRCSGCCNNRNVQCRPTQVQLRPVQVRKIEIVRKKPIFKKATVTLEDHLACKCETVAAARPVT

Sequence of recombinant human VEGF165 (P15692 other isoform, or with tags, fused parts or gaps limits assumed): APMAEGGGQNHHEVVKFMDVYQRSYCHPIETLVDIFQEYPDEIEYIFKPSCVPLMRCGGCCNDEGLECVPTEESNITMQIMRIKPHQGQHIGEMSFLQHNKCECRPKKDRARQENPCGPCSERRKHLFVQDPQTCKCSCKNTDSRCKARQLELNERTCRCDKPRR

B1: CL-33675_GS_9E10.1 (bispecific antibody, human IgG1, kappa, L234A L235A)
heavy: EVTLRESGPALVKPTQTLTLTCTFSGFSLSTYGMGVGWIRQPPGKALEWLANIWWDDDKYYNPSLKNRLTISKDTSKNQVVLTMTNMDPVDTATYYCARIESSGPKYSFDYWGQGTMVTVSSGGGGSGGGGSEIQLVQSGSELKKPGASVKVSCKASGYTFTNYGMYWVKQAPGQGLEYMGWIDTETGRPTYADDFKGRFVFSLDTSVSTAYLQISSLKAEDTAVYFCARWSGDTTGIRGPWFAYWGQGTLVTVSSASTKGPSVFPLAPSSKSTSGGTAALGCLVKDYFPEPVTVSWNSGALTSGVHTFPAVLQSSGLYSLSSVVTVPSSSLGTQTYICNVNHKPSNTKVDKKVEPKSCDKTHTCPPCPAPEAAGGPSVFLFPPKPKDTLMISRTPEVTCVVVDVSHEDPEVKFNWYVDGVEVHNAKTKPREEQYNSTYRVVSVLTVLHQDWLNGKEYKCKVSNKALPAPIEKTISKAKGQPREPQVYTLPPSREEMTKNQVSLTCLVKGFYPSDIAVEWESNGQPENNYKTTPPVLDSDGSFFLYSKLTVDKSRWQQGNVFSCSVMHEALHNAYTQKSLSLSPGK
light: EIVLTQSPGTLSLSPGERATLSCRASSGSIWYSFVSWYQQKPGQAPRLLIYADDQRASGIPDRFSGSGSGTDFTLTISRLEPEDFAVYYCQSYGINIDVVFGGGTKVEIKGGSGGGGSGGDIRMTQSPSSLSASVGDRVTIECLASEDIYSDLAWYQQKPGKSPKLLIYNANGLQNGVPSRFSGSGSGTDYSLTISSLQPEDVATYFCQQYNYFPGTFGQGTKLEIKRTVAAPSVFIFPPSDEQLKSGTASVVCLLNNFYPREAKVQWKVDNALQSGNSQESVTEQDSKDSTYSLSSTLTLSKADYEKHKVYACEVTHQGLSSPVTKSFNRGEC
Turning to B1, the “Potency IC50 (nM) HMVEC-d hVEGF165” value in assay [1] was 0.064 nM. Moreover, the “Potency IC50 (nM) NIH-3T3 hPDGF-BB” value in assay [2] came to 0.031 nM.

B2: CL-33675_GS_9E10.6 (bispecific antibody, human IgG1, kappa, L234A L235A)
heavy: EVTLRESGPALVKPTQTLTLTCTFSGFSLSTYGMGVGWIRQPPGKALEWLANIWWDDDKYYNPSLKNRLTISKDTSKNQVVLTMTNMDPVDTATYYCARIESSGPKYSFDYWGQGTMVTVSSGGGGSGGGGSEVQLVQSGAEVKKPGSSVKVSCKASGYTFTNYGMYWVRQAPGQGLEWMGWIDTETGRPTYADDFKGRFTFTADKSTSTAYMELSSLRSEDTAVYYCARWSGDTTGIRGPWFAYWGQGTLVTVSSASTKGPSVFPLAPSSKSTSGGTAALGCLVKDYFPEPVTVSWNSGALTSGVHTFPAVLQSSGLYSLSSVVTVPSSSLGTQTYICNVNHKPSNTKVDKKVEPKSCDKTHTCPPCPAPEAAGGPSVFLFPPKPKDTLMISRTPEVTCVVVDVSHEDPEVKFNWYVDGVEVHNAKTKPREEQYNSTYRVVSVLTVLHQDWLNGKEYKCKVSNKALPAPIEKTISKAKGQPREPQVYTLPPSREEMTKNQVSLTCLVKGFYPSDIAVEWESNGQPENNYKTTPPVLDSDGSFFLYSKLTVDKSRWQQGNVFSCSVMHEALHNAYTQKSLSLSPGK
light: EIVLTQSPGTLSLSPGERATLSCRASSGSIWYSFVSWYQQKPGQAPRLLIYADDQRASGIPDRFSGSGSGTDFTLTISRLEPEDFAVYYCQSYGINIDVVFGGGTKVEIKGGSGGGGSGGDIRMTQSPSSLSASVGDRVTITCLASEDIYSDLAWYQQKPGKSPKLLIYNANGLQNGVPSRFSGSGSGTDYTLTISSLQPEDVATYFCQQYNYFPGTFGQGTKLEIKRTVAAPSVFIFPPSDEQLKSGTASVVCLLNNFYPREAKVQWKVDNALQSGNSQESVTEQDSKDSTYSLSSTLTLSKADYEKHKVYACEVTHQGLSSPVTKSFNRGEC
On to B2, for which the “Potency IC50 (nM) HMVEC-d hVEGF165” value in assay [1] worked out at 0.082 nM. In assay [2], the “Potency IC50 (nM) NIH-3T3 hPDGF-BB” value was determined as 0.037 nM.

B3: 1B10.1_GS_3E2.1 (bispecific antibody, human IgG1, kappa, L234A L235A)
heavy: EVQLVESGGGLVQPGGSLRLSCAASGFSFSKYDMAWFRQAPGKGLEWVASITTSGVGTYYRDSVKGRFTVSRDNAKSTLYLQMNSLRAEDTAVYYCARGYGAMDAWGQGTTVTVSSGGGGSGGGGSEVQLVQSGAEVKKPGSSVKVSCKASGYTFTESYMYWVKQAPGQGLELIGRIDPEDGSTDYVEKFKNKATLTADKSTSTAYMELSSLRSEDTAVYFCARFGARSYFYPMDAWGQGTTVTVSSASTKGPSVFPLAPSSKSTSGGTAALGCLVKDYFPEPVTVSWNSGALTSGVHTFPAVLQSSGLYSLSSVVTVPSSSLGTQTYICNVNHKPSNTKVDKKVEPKSCDKTHTCPPCPAPEAAGGPSVFLFPPKPKDTLMISRTPEVTCVVVDVSHEDPEVKFNWYVDGVEVHNAKTKPREEQYNSTYRVVSVLTVLHQDWLNGKEYKCKVSNKALPAPIEKTISKAKGQPREPQVYTLPPSREEMTKNQVSLTCLVKGFYPSDIAVEWESNGQPENNYKTTPPVLDSDGSFFLYSKLTVDKSRWQQGNVFSCSVMHEALHNAYTQKSLSLSPGK
light: DIQMTQSPSSLSASVGDRVTITCKASQDIDDYLSWYQQKPGKSPKLVIYAATRLADGVPSRFSGSGSGTDYTLTISSLQPEDFATYYCLQSSSTPWTFGGGTKVEIKGGSGGGGSGGETVLTQSPATLSLSPGERATLSCRASESVSTLMHWYQQKPGQQPRLLIYGASNLESGVPARFSGSGSGTDFTLTISSLEPEDFAVYFCQQSWNDPWTFGGGTKVEIKRTVAAPSVFIFPPSDEQLKSGTASVVCLLNNFYPREAKVQWKVDNALQSGNSQESVTEQDSKDSTYSLSSTLTLSKADYEKHKVYACEVTHQGLSSPVTKSFNRGEC
As to B3, in assay [1], the “Potency IC50 (nM) HMVEC-d hVEGF165” value was found to be 0.084 nM. Also, in assay [2], the “Potency IC50 (nM) NIH-3T3 hPDGF-BB” value is 1.54 nM.

B4: 1E3.4_GS_CL-33675 (bispecific antibody, human IgG1, kappa, L234A L235A)
heavy: EIQLVQSGSELKKPGASVKVSCKASGYPFTNSGMYWVKQAPGQGLEYMGWINTEAGKPTYADDFKGRFVFSLDTSVSTAYLQISSLKAEDTAVYFCARWGYISDNSYGWFDYWGQGTLVTVSSGGGGSGGGGSEVTLRESGPALVKPTQTLTLTCTFSGFSLSTYGMGVGWIRQPPGKALEWLANIWWDDDKYYNPSLKNRLTISKDTSKNQVVLTMTNMDPVDTATYYCARIESSGPKYSFDYWGQGTMVTVSSASTKGPSVFPLAPSSKSTSGGTAALGCLVKDYFPEPVTVSWNSGALTSGVHTFPAVLQSSGLYSLSSVVTVPSSSLGTQTYICNVNHKPSNTKVDKKVEPKSCDKTHTCPPCPAPEAAGGPSVFLFPPKPKDTLMISRTPEVTCVVVDVSHEDPEVKFNWYVDGVEVHNAKTKPREEQYNSTYRVVSVLTVLHQDWLNGKEYKCKVSNKALPAPIEKTISKAKGQPREPQVYTLPPSREEMTKNQVSLTCLVKGFYPSDIAVEWESNGQPENNYKTTPPVLDSDGSFFLYSKLTVDKSRWQQGNVFSCSVMHEALHNAYTQKSLSLSPGK
light: ATQLTQSPSSLSASVGDRVTISCRASEGVYSYMHWYQQKPGKQPKLLIYKASNLASGVPSRFSGSGSGTDFTLTISSLQPEDFATYFCHQNWNDPLTFGQGTKLEIKGGSGGGGSGGEIVLTQSPGTLSLSPGERATLSCRASSGSIWYSFVSWYQQKPGQAPRLLIYADDQRASGIPDRFSGSGSGTDFTLTISRLEPEDFAVYYCQSYGINIDVVFGGGTKVEIKRTVAAPSVFIFPPSDEQLKSGTASVVCLLNNFYPREAKVQWKVDNALQSGNSQESVTEQDSKDSTYSLSSTLTLSKADYEKHKVYACEVTHQGLSSPVTKSFNRGEC
For the molecule B4, the “Potency IC50 (nM) HMVEC-d hVEGF165” value in assay [1] came out at 0.067 nM. For the same molecule, the “Potency IC50 (nM) NIH-3T3 hPDGF-BB” value in assay [2] was found to be 0.037 nM.

B5: 1E3.4_GS_9E8.4 (bispecific antibody, human IgG1, kappa, L234A L235A)
heavy: EIQLVQSGSELKKPGASVKVSCKASGYPFTNSGMYWVKQAPGQGLEYMGWINTEAGKPTYADDFKGRFVFSLDTSVSTAYLQISSLKAEDTAVYFCARWGYISDNSYGWFDYWGQGTLVTVSSGGGGSGGGGSEVTLRESGPALVKPTQTLTLTCTFSGFSLSTYGMGVGWIRQPPGKALEWLANIWWDDDKYYNPSLKNRLTISKDTSKNQVVLTMTNMDPVDTATYYCARIESIGTTYSFDYWGQGTMVTVSSASTKGPSVFPLAPSSKSTSGGTAALGCLVKDYFPEPVTVSWNSGALTSGVHTFPAVLQSSGLYSLSSVVTVPSSSLGTQTYICNVNHKPSNTKVDKKVEPKSCDKTHTCPPCPAPEAAGGPSVFLFPPKPKDTLMISRTPEVTCVVVDVSHEDPEVKFNWYVDGVEVHNAKTKPREEQYNSTYRVVSVLTVLHQDWLNGKEYKCKVSNKALPAPIEKTISKAKGQPREPQVYTLPPSREEMTKNQVSLTCLVKGFYPSDIAVEWESNGQPENNYKTTPPVLDSDGSFFLYSKLTVDKSRWQQGNVFSCSVMHEALHNAYTQKSLSLSPGK
light: ATQLTQSPSSLSASVGDRVTISCRASEGVYSYMHWYQQKPGKQPKLLIYKASNLASGVPSRFSGSGSGTDFTLTISSLQPEDFATYFCHQNWNDPLTFGQGTKLEIKGGSGGGGSGGEFVLTQSPGTLSLSPGERATLSCERSSGDIGDSYVSWYQQKPGQAPRLVIYADDQRPSGIPDRFSGSGSGTDFTLTISRLEPEDFAVYYCQSYDINIDIVFGGGTKVEIKRTVAAPSVFIFPPSDEQLKSGTASVVCLLNNFYPREAKVQWKVDNALQSGNSQESVTEQDSKDSTYSLSSTLTLSKADYEKHKVYACEVTHQGLSSPVTKSFNRGEC
B5: the “Potency IC50 (nM) HMVEC-d hVEGF165” value in assay [1] was determined as 0.092 nM. Also, the “Potency IC50 (nM) NIH-3T3 hPDGF-BB” value in assay [2] was found to be 0.329 nM.

B6: 1B10.1_GS_CL-33675 (bispecific antibody, human IgG1, kappa, L234A L235A)
heavy: EVQLVESGGGLVQPGGSLRLSCAASGFSFSKYDMAWFRQAPGKGLEWVASITTSGVGTYYRDSVKGRFTVSRDNAKSTLYLQMNSLRAEDTAVYYCARGYGAMDAWGQGTTVTVSSGGGGSGGGGSEVTLRESGPALVKPTQTLTLTCTFSGFSLSTYGMGVGWIRQPPGKALEWLANIWWDDDKYYNPSLKNRLTISKDTSKNQVVLTMTNMDPVDTATYYCARIESSGPKYSFDYWGQGTMVTVSSASTKGPSVFPLAPSSKSTSGGTAALGCLVKDYFPEPVTVSWNSGALTSGVHTFPAVLQSSGLYSLSSVVTVPSSSLGTQTYICNVNHKPSNTKVDKKVEPKSCDKTHTCPPCPAPEAAGGPSVFLFPPKPKDTLMISRTPEVTCVVVDVSHEDPEVKFNWYVDGVEVHNAKTKPREEQYNSTYRVVSVLTVLHQDWLNGKEYKCKVSNKALPAPIEKTISKAKGQPREPQVYTLPPSREEMTKNQVSLTCLVKGFYPSDIAVEWESNGQPENNYKTTPPVLDSDGSFFLYSKLTVDKSRWQQGNVFSCSVMHEALHNAYTQKSLSLSPGK
light: DIQMTQSPSSLSASVGDRVTITCKASQDIDDYLSWYQQKPGKSPKLVIYAATRLADGVPSRFSGSGSGTDYTLTISSLQPEDFATYYCLQSSSTPWTFGGGTKVEIKGGSGGGGSGGEIVLTQSPGTLSLSPGERATLSCRASSGSIWYSFVSWYQQKPGQAPRLLIYADDQRASGIPDRFSGSGSGTDFTLTISRLEPEDFAVYYCQSYGINIDVVFGGGTKVEIKRTVAAPSVFIFPPSDEQLKSGTASVVCLLNNFYPREAKVQWKVDNALQSGNSQESVTEQDSKDSTYSLSSTLTLSKADYEKHKVYACEVTHQGLSSPVTKSFNRGEC
B6: the “Potency IC50 (nM) HMVEC-d hVEGF165” value in assay [1] is 0.05 nM. Besides, the “Potency IC50 (nM) NIH-3T3 hPDGF-BB” value in assay [2] was found to be 0.037 nM.
